Experimental data reported in publication PMC11783328 (Science immunology, 2024).

Target: T1, BG505 SOSIP.v4.1-GT1.1 (HIV-1 (isolate BG505), UniProt Q2N0S6)
T1 construct: copies: 3 + 3
Assay: SPR; Biacore 3000; His-tagged GT1 and GT1.1 trimers captured in parallel flow cells; IgG injected from 1 uM in two- or four-fold dilutions; association 300 s, dissociation 600 s, 50 uL/min; bivalent model (first- and second-point interaction; kon2 and KD2 converted from RU units)
Details: both partners purified

B1: gl-3BNC60 (antibody, V domains shown)
VH: not shown
VL: DIQMTQSPSSLSASVGDRVTITCQASQDISNYLNWYQQKPGKAPKLLIYDASNLETGVPSRFSGSGSGTDFTFTISSLQPEDIATYYCQQYEFIGPGTKVDIK
notes: also called 3BNC60 germline; inferred germline precursor of 3BNC60
  stoichiometry N: 1.1 paratopes per trimer
